Experimental data published in the DeepSol protein solubility set.

Test: soluble on expression in E. coli; label from the status in PepcDB or PDB records

Row | Sequence | soluble on expression in E. coli
1 | MVHHDGFQTVKGTIDWEHPMYKLYEKAKRNGKWNPADIDFSQDKEDFARLTSEEKIAALPLVAGFSAGEEAVTLDILPMAHALARQGRLEDVMFLTTFMHDEAKHVEMFSRWQQEVGIGAMDLSVFHNDHYKRIFYEALPEAMNRLYTDDSPEAVIRAATVYNMIVEGTLAESGYYTFRQIYKKAGLFPGLLQGIDYLNMDEGRHIQFGLYTIQRLVNENERYYDLFIQYMDELWPHVVGYVAYLTELGKRQQQLARTYALEIDYDMLNNYVVKQFNIRKKQISRAKRVDSIEELEKTVAES | not soluble
2 | MALKDLFSGFFVVEEEDDELEAPPEENEQQERQQPKQQAQSQNQFTEQPRNVNSERPRSIQSVPKKQSTRLQQSSGERKYQMNNTTSKNNARNVVNMNNQEQENYDFTQESSKMCLFEPRVFSDTQDIADELKNRRATLVNLQRIDKVSAKRIIDFLSGTVYAIGGDIQRVGSDIFLCTPDNVEVAGSITDQIENMEYQGELEHHHHHH | not soluble
3 | MGSDKIHHHHHHMQPLAQTLDRIRTISEYLKPEFGIPADGNWVSVADDFVSGSPWLTSMIAAEQTRLRTTSAAIIGSTLLQNYQWPIIPTVVACYLFEQRVPDLAPANTRVHFTAEHQADALALLGGRFSALPDDPAAEHPDATIVPDRAALRDAMRTGIESHFAVVIEHICAALGCKPRGLWLNVADAVANALIWLAQQHAAFDPTQIEAEVEAVIRVPGSPLNNRQVGLIQLSYGENRQLFLRRATCCYWYKTEGGEYCLTCPHRTAEDRQARLLAYMAQKYTQQQQLVQEEVTA | not soluble
4 | MVRGIRGAITVEEDTPEAIHQATRELLLKMLEANGIQSYEELAAVIFTVTEDLTSAFPAEAARQIGMHRVPLLSAREVPVPGSLPRVIRVLALWNTDTPQDRVRHVYLREAVRLRPDLESAQ | soluble
5 | MLSGTRSRSSTKARKGTPRPPALSQSVYCGRRYTGPHTTFFFEITNDEYLLLSVLIFCNPALLQLSENGKLLLTIYRNLYCSALLQHCLLNNQKSGPARFTELLGVYQAIEVHYSDLANYIVLFQLNRPKVNQIVKNCFEAVT | not soluble
6 | TVAEPKAINATQPLLLDAVRGKEVERPPVWLMRQAGRYMKSYQLLCEKYPLFRDRSENVDLVVEISLQPWKVFRPDGVILFSDILTPLSGMNIPFDIIKGKGPVIFDPLRTAADVEKVREFIPEKSVPYVGEALTILRKEVNNQAAVLGFVGAPFTLASYVVEGGSSKNFTKIKRLAFAEPKVLHALLQKFATSMAKYIRYQADSGAQAVQIFDSWATELSPVDFEEFSLPYLKQIVDSVKLTHPNLPLILYASGSGGLLERLPLTGVDVVSLDWTVDMADGRRRLGPNVAIQGNVDPGVLFGSKEFITNRINDTVKKAGKGKHILNLGHGIKVGTPEENFAHFFEIAKGLRY | soluble
7 | SLNIKDEHIDSVCSLLDQLVGNVSFKNLFTGYGLFHKEETMFAIWQNKKLYLRGEGVLAIQLTKLGCEPFTTNELNKRFVLSQYYALSDQILRSNRLCRKLIILSIKQILEQKLECTLRKLNRLKDLPNLTIKHERALIKVGITNVAMLREIGAENALVELKKSGSGATLDFYWKLVCALQNKNSQMLSQAEKERLLKKLNEVWRKNGLKGYRKLDDE | not soluble
8 | SDSASQDINLNSPNKGVLSDFMTDVPVDPGVVHRTPVVEGLTEGEEEELRAELAKVEEEIVTLRQVLAAKERHCGELKRRLGLSTLGELKQNLSRSWHDVQVSTAYVKTSEKLGEWNEKVTQSDLYKKTQETLSQAGQKTSAALSTMGSAISRKLGDMSSYSIRHSISMPVMRNSATFKSFEDRVGTIKSKVVGGRENGSDNLPPSPGSGDQTLPDHAPF | soluble
9 | MNQEFFMLSQAMVEHLNEQINLEFFSSNLYLQMSAWCEDKGFDGAAEFLRAHAVEEMQHMQRLFTYVSETGALPILGAIAAPRHDFASLGEVFRETYQHEQKITQQINKLAHVAFTSQDYSTFNFLQWYVAEQHEEEKLFKGILDKLELVGEDGKALFFIDKDLAALAKKGSSSVMDAPAE | not soluble
10 | MLNDLYEEIKLRKTQPREGSYTNYLFDKGLDKILKKVGEEATEVVIAAKNDNQELIAEVSDLAYHLLVLLAEKNIPLVAIQTELQKREGKLSTTRDRKEINDL | not soluble
11 | TLTDTMNDLAVRMAESFQAEEVGFFHIDHFENLTLLPGSTAFFKEAKPSDFYNELKEKLYEGEKGVFIGNGQSVFGKAGYGSLMAAPMIQNDRLLGFAVLLKQELYAFTFEMYKLFQALIHHATLAVTNSMLRDRLEHLVKTDQL | not soluble
12 | MRGSHHHHHHGSACELGTMPHIDNDVKLDFKDVLLRPKRSTLKSRSEVDLTRSFSFRNSKQTYSGVPIIAANMDTVGTFEMAKVLCKFSLFTAVHKHYSLVQWQEFAGQNPDCLEHLAASSGTGSSDFEQLEQILEAIPQVKYICLDVANGYSEHFVEFVKDVRKRFPQHTIMAGNVVTGEMVEELILSGADIIKVGIGPGSVCTTRKKTGVGYPQLSAVMECADAAHGLKGHIISDGGCSCPGDVAKAFGAGADFVMLGGMLAGHSESGGELIERDGKKYKLFYGMSSEMAMKKYAGGVAEYRASEGKTVEVPFKGDVEHTIRDILGGIRSTCTYVGAAKLKELSRRTTFIRVTQQVNPIFSEAC | soluble
13 | MRKVKTDNSDLIEYVNTVKELKNHIPIEEYRNEYRKLRSDDIPLVKAQKFKSAHTEVRRLEKKRESLIEYFIDELNPISSSKANTSARSTGNLDLFNERVLYRKAISEKSDEEIVALVIKQRTEAAVEFQRSIEQSLEQLSRISSEFEPSNQKRRKMSL | soluble
14 | MGSDKIHHHHHHMLNKRAQILLKTLVERYISEGQPVGSRSLSKFSGLDLSAATIRNVMADLEDMGLVASPHASAGRIPTHQGYRFFVDTLLVVKPLDVIEIHQLQDQLHPDNPSRLINSASQLLAELTRFAGVVVSPKRNSAIFRYIEFMSLSEKRVLLIIVTPEGDVQNRVLFTDRNYSQSELTEAANFINHNYAGCAIDEIRTRLQSELKQLRQDMTSLMTAAIDAGDAAIRENSEAVIVAGERKLLDVQDLSSNMASLKKLFDLFERKTALLQLLEFSRKAEGVQIFIGEECGVVTMDEFSVVTAPYRVDGKMVGTVAVIGPTRMAYERVIPVVDMTARLLSSALSLH | not soluble
15 | MSQLTEFISCIPVVNEEQNEEDERGLCKIQIEDGAMLETLDENSLSGLRIEKMLVSEGTGIFSKSSFGINDLRIFTGENIDEESKKYVWYELLKMLTGHKVYIASLDEKVVFTKWTCRMQDDEVWKVVMELESSAIIRKIAELTLHPVKKGEIDLFEMADKLYKDICCVNDSYRNIKESDSSNRNRVEQLARERELLDKLLETRDERTRAMMVTLLNEKKKKIRELHEILRQNNIKLSDDDVLDSA | soluble
16 | QFDPSIVLTEVAMLLEKADINEEVERTKSHLKQFYGIILLEEPIGRKLDFLIQEMNREINTIGSKASSLKITEQVVEMKTTLEKIREQVQNVE | not soluble
17 | MGSDKIHHHHHHAQDRAQQASELLDRLIAGQGDSVYVHLDDNIRKMLSVEMLNGLFKQLEQQAGKYQSHGEWNTEPINGMTVYYCDVKFERLPLRFLTAFNPDGKVNTIRFVPVPPEKTTPPTTSVQDKIKETDIQVCTGNFKLPGTLTLPKNGKDLPVVILVHGSGASDRDETVGANKPFRDLAYGLAERGIAVIRYDKRTKVYGADSAPAGKEITFDEESVDDALSAIKLARSIPTINPERIYILGHSLGGTLAPRIAQRSDKVPAGIILLAGAARPLEDLFISQVKFLASALPSTKDIEKEIAELQKQVDNVKRLGTDTFDITTPLPMNLSQAYWMLANQYKPLEVVRKLTLPILVLQGERDYQVTMQDFELWKSALAKHPNAIFKSYPRLNHLFQEGEGKSTPLEYSRPSSIPSYVTDDIAAFINRPKPGN | not soluble
18 | MATVAELKAVLKDTLEKKGVLGHLKARIRAEVFNALDDDREPRPSLSHENLLINELIREYLEFNKYKYTASVLIAESGQPVVPLDRQFLIHELNAFEESKDNTIPLLYGILAHFLRGTKDGIQNAFLKGPSLQPSDPSLGRQPSRRKPMDDHLRKEEQKSTNIEDLHVSQAVNR | soluble
19 | MSLTLSIPPSIQCQTEAACRLITRVTGDTLRAIHLYGSAVAGDLKPNSDIDLLVTICQPLTETQRATLMQELLALSSPPGASAEKRALEVTVVLYSQLVPWCFPPSREMQFGEWLREDIYQGIYEPAQQDWDMVLLITQILETSIPLKGERAERLFTPAPAAQLLKALRYPLDLWQSTADVQGDEYHIVLTLARIWYTLSTGRFTSKDAAADWLLPQLPEEYAATLRAAQREYLGLEQQDWHILLPAVVRFVDFAKAYIPTQFTEGHHHHHH | soluble
20 | GSSHHHHHHSSGLVPRGSQILCVGLVVLDVISLVDKYPKEDSEIRCLSQRWQRGGNASNSCTILSLLGAPCAFMGSMAPGHVADFVLDDLRRYSVDLRYTVFQTTGSVPIATVIINEASGSRTILYYDRSLPDVSATDFEKVDLTQFKWIHIEGRNASEQVKMLQRIDAHNTRQPPEQKIRVSVEVEKPREELFQLFGYGDVVFVSKDVAKHLGFQSAEEALRGLYGRVRKGAVLVCAWAEEGADALGPDGKLLHSDAFPPPRVVDTLGAGDTFNASVIFSLSQGRSVQEALRFGCQVAGKKCGLQGFDGIV | soluble
21 | MQENQQITKKEQYNLNKLQKRLRRNVGEAIADFNMIEEGDRIMVCLSGGKDSYTMLEILRNLQQSAPINFSLVAVNLDQKQPGFPEHVLPEYLEKLGVEYKIVEENTYGIVKEKIPEGKTTCSLCSRLRRGILYRTATELGATKIALGHHRDDILQTLFLNMFYGGKMKGMPPKLMSDDGKHIVIRPLAYCREKDIQRFADAKAFPIIPCNLCGSQPNLQRQVIADMLRDWDKRYPGRIETMFSAMQNVVPSHLCDTNLFDFKGITHGSEVVNGGDLAFDREEIPLQPACWQPEEDENQLDELRLNVVEVKLEHHHHHH | not soluble
22 | MTNNQKLVGRHKRLAFMKVGTEGTYDRITGFTSLIEGKEAKEYARQYIDEATERTDVVGYATGIEYAFDRYTNNAVHEKIANITDDELLGVDAQVEIVSVDVFEEKAGGKYPARKRTYSVVPDTTGDGTDALIYSGNFKAVSEIVKGYCTTTDKWQTCTFVEGEIPAEALEHHHHHH | soluble
23 | MLSQLPLFAGGEIVRGFGRGSKELGIPTANFPLEVVKSLPESLPTGAYYGWANVDNGPVHKMVLSIGWNPFYNNKEKSVETHMLHDFNCDLYGQTLKICIVGYLRPERSFDSLESLIAAIRGDIEQAKAFLDEADKAKLKEAPFFTEKLCSSKLEHHHHHH | not soluble
24 | MDKIYIHDMEFYGYHGVFPEENKLGQRFKVDLTVELDLKRAGESDDLEHSVNYGELFELCRKVVEDRTYKLVESIAENIATDILKQYESISRCTIKVIKPDPPIPGHYRAVAVEITRERP | not soluble
25 | MSLAIRQHVGALFTDLYEVTMAQAYWAERMSGTAVFEIFFRKLPPGRSYIMAAGLADVVEFLEAFRFDEQDLRYLRGLGQFSDEFLRWLAGVRFTGDVWAAPEGTVIFPNEPAVQLIAPIIEAQLVETFVLNQIHLQSVLASKAARVVAAARGRPVVDFGARRAHGTDAACKVARTSYLAGAAGTSNLLAARQYGIPTFGTMAHSFVQAFDSEVAAFEAFARLYPATMLLVDTYDTLRGVDHVIELAKRLGNRFDVRAVRLDSGDLDELSKATRARLDTAGLEQVEIFASSGLDENRIAALLAARCPIDGFGVGTQLVVAQDAPALDMAYKLVAYDGSGRTKFSSGKVIYPGRKQVFRKLEHGVFCGDTLGEHGENLPGDPLLVPIMTNGRRIRQHAPTLDGARDWARQQIDALPPELRSLEDTGYSYPVAVSDRIVGELARLRHADTAEAHPGSNVVGAKAKRPEGHHHHHH | not soluble
